According to publication PMC10504261, “Metabolism of plant-derived toxins from its insect host increases the success of the entomopathogenic fungus Beauveria bassiana” (The ISME Journal, 2023):

What was measured:
BbGSTUre2p2 = target: T1, BbGSTUre2p2 (Beauveria bassiana, UniProt J5JP22); experiment: GSH conjugation, absorbance at […] nm, Michaelis-Menten fit; details: read-out: KM / μM; 4 mM GSH (saturating); ITC 25-800 µM; n = 4
T1 construct: gene BBA_04201

BbGSTUre2p3 = target: T2, BbGSTUre2p3 (Beauveria bassiana, UniProt J4KPJ4); experiment: as above; details: read-out: KM / μM; 4 mM GSH (saturating); ITC 25-800 µM; n = 4
T2 construct: gene BBA_03339

BbGSTe1 = target: T3, BbGSTe1 (Beauveria bassiana, UniProt J4UX82); experiment: as above; details: read-out: KM / μM; 4 mM GSH (saturating); ITC 25-800 µM; n = 4
T3 construct: gene BBA_00672

BbGSTN21 = target: T4, BbGSTN21 (Beauveria bassiana, UniProt J5JKP3); experiment: as above; details: read-out: KM / μM; 4 mM GSH (saturating); ITC 25-800 µM; n = 4
T4 construct: gene BBA_07410

C=CCN=C=S = experiment: purified protein; details: 4 mM GSH (saturating); ITC 25-800 µM; n = 4
S=C=NCCc1ccccc1 = experiment: purified protein; details: 4 mM GSH (saturating); ITC 25-800 µM; n = 4

T3 sequence (J4UX82 entry or part of it): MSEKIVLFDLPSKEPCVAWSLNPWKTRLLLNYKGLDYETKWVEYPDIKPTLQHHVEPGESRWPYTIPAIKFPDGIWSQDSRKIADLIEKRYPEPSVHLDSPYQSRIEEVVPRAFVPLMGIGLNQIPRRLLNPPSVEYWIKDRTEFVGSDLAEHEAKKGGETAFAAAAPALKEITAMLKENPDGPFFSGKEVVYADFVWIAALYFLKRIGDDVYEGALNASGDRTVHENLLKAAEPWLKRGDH
T2 sequence (J4KPJ4 entry or part of it): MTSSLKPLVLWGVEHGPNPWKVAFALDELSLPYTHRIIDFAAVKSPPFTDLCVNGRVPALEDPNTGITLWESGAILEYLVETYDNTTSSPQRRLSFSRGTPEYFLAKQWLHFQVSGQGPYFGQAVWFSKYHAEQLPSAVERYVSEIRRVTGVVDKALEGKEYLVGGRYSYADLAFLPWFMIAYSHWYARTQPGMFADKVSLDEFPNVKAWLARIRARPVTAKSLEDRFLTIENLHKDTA
T1 sequence (J5JP22 entry or part of it): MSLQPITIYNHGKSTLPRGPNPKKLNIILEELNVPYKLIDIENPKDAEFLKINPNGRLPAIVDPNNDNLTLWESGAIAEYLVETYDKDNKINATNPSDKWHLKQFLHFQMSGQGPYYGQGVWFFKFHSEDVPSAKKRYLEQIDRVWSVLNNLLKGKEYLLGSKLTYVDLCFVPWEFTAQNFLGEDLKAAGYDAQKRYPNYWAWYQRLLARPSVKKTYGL
T4 sequence (J5JKP3 entry or part of it): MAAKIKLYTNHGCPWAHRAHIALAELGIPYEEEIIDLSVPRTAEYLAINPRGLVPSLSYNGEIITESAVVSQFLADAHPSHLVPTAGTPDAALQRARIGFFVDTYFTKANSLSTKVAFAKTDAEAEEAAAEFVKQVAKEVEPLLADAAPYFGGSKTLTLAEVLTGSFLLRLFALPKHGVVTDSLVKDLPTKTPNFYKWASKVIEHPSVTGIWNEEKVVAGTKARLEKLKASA

Compound	Km (BbGSTUre2p2)	Km (BbGSTUre2p3)	Km (BbGSTe1)	Km (BbGSTN21)	Km (C=CCN=C=S)	Vmax (C=CCN=C=S)	kcat (C=CCN=C=S)	kcat/Km (C=CCN=C=S)	Km (S=C=NCCc1ccccc1)	Vmax (S=C=NCCc1ccccc1)	kcat (S=C=NCCc1ccccc1)	kcat/Km (S=C=NCCc1ccccc1)
C[S+]([O-])CCCCN=C=S (stereo not drawn) [1a, 4MSOB-ITC]	1210 ± 890 µM	747 ± 338 µM	1220 ± 839 µM	1130 ± 578 µM								
BbGSTN21 (Beauveria bassiana ARSEF 2860)					448.48 ± 226.89 µM	2.39 µmol/min/mg	1 ± 0.24 s⁻¹	2230 ± 540 M⁻¹ s⁻¹	1191.89 ± 1464.92 µM	0.97 µmol/min/mg	0.41 ± 0.36 s⁻¹	340 ± 300 M⁻¹ s⁻¹
BbGSTUre2p2 (Beauveria bassiana ARSEF 2860)					487.23 ± 266.11 µM	0.44 µmol/min/mg	0.18 ± 0.05 s⁻¹	370 ± 100 M⁻¹ s⁻¹	223.06 ± 86.81 µM	0.15 µmol/min/mg	0.06 ± 0.01 s⁻¹	280 ± 50 M⁻¹ s⁻¹
BbGSTUre2p3 (Beauveria bassiana ARSEF 2860)					831.61 ± 572.57 µM	0.59 µmol/min/mg	0.27 ± 0.11 s⁻¹	320 ± 130 M⁻¹ s⁻¹	71.76 ± 38.91 µM	0.08 µmol/min/mg	0.04 ± 0.01 s⁻¹	490 ± 80 M⁻¹ s⁻¹
BbGSTe1 (Beauveria bassiana ARSEF 2860)					312.75 ± 100.06 µM	0.41 µmol/min/mg	0.19 ± 0.02 s⁻¹	590 ± 80 M⁻¹ s⁻¹	860.76 ± 561.56 µM	1.9 µmol/min/mg	0.88 ± 0.35 s⁻¹	1020 ± 410 M⁻¹ s⁻¹
